The values that follow come from article PMC9307952, “Lipoate protein ligase B primarily recognizes the C8-phosphopantetheine arm of its donor substrate and weakly binds the acyl carrier protein” (The Journal of Biological Chemistry, 2022).

To fix the notation:
B1: E. coli LipB (EcLipB) (Escherichia coli K-12; G72A/G73A) (protein)
chain: MYQDKILVRQLGLQPYEPISQAMHEFTDTRDDSTLDEIWLVEHYPVFTQGQAGKAEHILMPGDIPVIQSDRAAQVTYHGPGQQVMYVLLNLKRRKLGVRELVTLLEQTVVNTLAELGIEAHPRADAPGVYVGEKKICSLGLRIRRGCSFHGLALNVNMDLSPFLRINPCGYAGMEMAKISQWKPEATTNNIAPRLLENILALLNNPDFEYITA
B2: E. coli LipB (EcLipB) (Escherichia coli K-12; K135A) (protein)
chain: MYQDKILVRQLGLQPYEPISQAMHEFTDTRDDSTLDEIWLVEHYPVFTQGQAGKAEHILMPGDIPVIQSDRGGQVTYHGPGQQVMYVLLNLKRRKLGVRELVTLLEQTVVNTLAELGIEAHPRADAPGVYVGEKAICSLGLRIRRGCSFHGLALNVNMDLSPFLRINPCGYAGMEMAKISQWKPEATTNNIAPRLLENILALLNNPDFEYITA
B3: E. coli LipB (EcLipB) (Escherichia coli K-12; R71A) (protein)
chain: MYQDKILVRQLGLQPYEPISQAMHEFTDTRDDSTLDEIWLVEHYPVFTQGQAGKAEHILMPGDIPVIQSDAGGQVTYHGPGQQVMYVLLNLKRRKLGVRELVTLLEQTVVNTLAELGIEAHPRADAPGVYVGEKKICSLGLRIRRGCSFHGLALNVNMDLSPFLRINPCGYAGMEMAKISQWKPEATTNNIAPRLLENILALLNNPDFEYITA

Substrate in this series: CCCCCCCC(=O)SCCNC(=O)CCNC(=O)[C@H](O)C(C)(C)COP(=O)(O)OP(=O)(O)OC[C@H]1O[C@@H](n2cnc3c(N)ncnc32)[C@H](O)[C@@H]1OP(=O)(O)O
Kind of series: purified protein. The settings on record: 5 μM LipB, 25 μM E. coli GcvH as acceptor, 0-160 μM C8-CoA, 50 mM Tris-HCl, 200 mM NaCl, pH 8.0, 30 °C.
For the protein B1, the Michaelis-Menten constant (Km) was found to be 6.71 ± 0.98 µM, the maximal velocity (Vmax) was determined as 0.32 µmol/min and the kcat was 0.001 s⁻¹.

Consider B2, for which the Km worked out at 42.37 ± 4.58 µM, the Vmax is 0.2 µmol/min and the kcat was found to be 0.000667 s⁻¹.

In the case of B3, the Michaelis-Menten constant (Km) was 34.39 ± 8.8 µM, the Vmax is 0.26 µmol/min and the kcat is 0.000833 s⁻¹.

As usually defined, the Km is the concentration of substrate that gives half-maximal velocity. As usually defined, the Vmax is the rate approached at saturating substrate. As a reminder, the kcat is the maximal rate divided by the concentration of active sites.
